In US20260137802A1 (CRISPR THERAPEUTICS, published 2026):

B1: P31 (VHH)
VHH: EVQLVESGGGLVRAGGSLRLSCAASGRTFTYDARAWFRQAPGKEREFVAAISWSGGSTYYPNSMKGRFTISRDNAKNTVYLQMNSLKPEDTAVYYCAADESFPAYYSDYALYRYWGQGTLVTVSS
notes: also called P31/P55; anti-CD117 VHH P31
B2: P35 (VHH)
VHH: QVQLVESGGGLVQAGGSLRLSCAASGGTFSIYPVGWFRQAPGKQREFVAAIGWSASGTYYGDSVEGRFTVSRDNARSTVYLRMSSLKPDDTAVYYCAAASGSNWRLGAIDEYDSWGQGTQVTVSS
notes: also called anti-CD117 VHH P35
B3: P32 (VHH)
VHH: QVQLVESGGGLVQAGDSLRLSCAASGRTFSSYAMGWFRQAPGKEREFVASITSSGLVAYYGDSVEARFTISRDNAKNTVYLQMDSLKPEDTAVYYCAARQYVGSGSYYLKKEGGYEYWGPGTQVTVSS
notes: also called anti-CD117 VHH P32
B4: P10 (VHH)
VHH: QVQLVESGGGLVQAGGSLRLSCVASGRTFSSYAMGWFRQGPGKEREFAAAILSNGLTTYYADSVKGRFTISRDNAKDTVYLQMNSLKPEDTANYYCAAAFTPEFRDGGIWDDASVDYWGQGTQVTVSS
notes: also called P10/P53; anti-CD117 VHH P10
B5: P38 (VHH)
VHH: EVQLVESGGGLVQAGGSLRLSCAASGRTSGSYVMGWFRQAPGKEREFVAAISWSAGMTYYADSVKGRFTISRDNAKNTVYLQMNSLKPEDTAVYYCAADQRGVPAYYSDYALYDYWGQGTQVTVSS
notes: also called P38/P72; anti-CD117 VHH P38
B6: P27 (VHH)
VHH: EVQLVESGGGLVRAGGSLRLSCAASGRTTFSTYWLGWFRQAPGKNREFVAAISWSAGMAYYQDSKGRFTISRDNTKNTAYLQMNSLQPEDTAVYYCAAGRFHPIRVDTALYWAQGTQVTVSS
notes: also called P27/P60; anti-CD117 VHH P27
B7: P-0055 (Fc fusion)
chain: B1 VHH
notes: also called P55; bivalent form of P31; not shown: Fc fragment
B8: P-0058 (Fc fusion)
chain: QVQLVESGGGLVQAGDSLRLSCAVSGRTLSNYFMAWLRQAPGKEREFVAAIHWSLGSTYYQDPVKGRFTISRDKAKNTVYLQMNTLKPEDTATYICAAGQHLSGLGGSAWSIEGDYWGQGTQVTVSS
notes: also called P58; bivalent form of P37; not shown: Fc fragment
B9: P-0056 (Fc fusion)
chain: B2 VHH
notes: the alignment instead labels 'P35/P57' and 'P32/P56'; also called P56; not shown: Fc fragment
B10: P-0057 (Fc fusion)
chain: B3 VHH
notes: the alignment instead labels 'P35/P57' and 'P32/P56'; also called P57; not shown: Fc fragment
B11: P-0053 (Fc fusion)
chain: B4 VHH
notes: also called P53; bivalent form of P10; not shown: Fc fragment
B12: P-0059 (Fc fusion)
chain: QVQLVESGGGLVQAGGSLRLSCTASGDTFSSYSMGWFRQGPGKEREFVGGIRWSGGTTYYADSVKGRFTISRDNAKNTVYLQMNSLKREDTAVYYCAAVRRRWLIWQEEEYDYWGQGTLVTVSS
notes: also called P59; bivalent form of P12; not shown: Fc fragment
B13: P-0072 (Fc fusion)
chain: B5 VHH
notes: also called P72; bivalent form of P38; not shown: Fc fragment
B14: P-0060 (Fc fusion)
chain: B6 VHH
notes: also called P60; bivalent form of P27; not shown: Fc fragment
B15: P-0054 (Fc fusion)
chain: QVHLVESGGGLVQAGGSLGLSCAASGHTFSNYAMGWFRQAPGKEREFVAAISWSGGSTLYADSVKGRFTISRDNGENTVYLQMNSLKPEDTAVYYCALDSTGVYGTGYVSSRKGRYEYWGQGTLVTVSS
notes: also called P54; bivalent form of P29; not shown: Fc fragment
B16: P-0010 (Fc fusion)
chain: B4 VHH
notes: Any second Fc chain without VHH is not described in the text; also called monovalent form of P10; not shown: Fc fragment
B17: P-0012 (Fc fusion)
chain: B12 chain
notes: Any second Fc chain without VHH is not described in the text; also called monovalent form of P12; not shown: Fc fragment
B18: P-0027 (Fc fusion)
chain: B6 VHH
notes: Any second Fc chain without VHH is not described in the text; also called monovalent form of P27; not shown: Fc fragment
B19: P-0029 (Fc fusion)
chain: B15 chain
notes: Any second Fc chain without VHH is not described in the text; also called monovalent form of P29; not shown: Fc fragment
B20: P-0032 (Fc fusion)
chain: B3 VHH
notes: Any second Fc chain without VHH is not described in the text; also called monovalent form of P32; not shown: Fc fragment

Molecular target: T1, truncated CD117 ectodomain, Domain 1 (UniProt P10721 26-112, limits assumed, biotinylated)
T1 construct: domain: Domain 1; not shown: AviTag
T1 sequence (P10721 26-112 limits assumed): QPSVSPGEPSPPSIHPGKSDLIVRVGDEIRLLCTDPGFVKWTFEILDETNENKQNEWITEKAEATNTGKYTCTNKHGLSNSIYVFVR
Assay: BLI, truncated ectodomain on SA biosensor
Protocol: To identify the approximate binding epitopes of the VHH antibodies, truncated ectodomains were expressed as fusion polypeptides with an AviTag. Additionally, biotin is added to the protein during expression to allow capture of the material onto Streptavidin-coated (SA) biosensors. SA biosensors (Sartorius) were incubated with one of the truncated ectodomains. Full length CD117 ectodomain was used as a control. […] Except for P29 and P37, all others bind Domains 1-2 and Domains 1-3. Except for P37, all others bind Domains 1-4.

B1: no binding.
B2: no binding.
B3: no binding.
B4: no binding.
B5: no binding.
B6: no binding.

Molecular target: T2, human CD117 ectodomain (human, UniProt P10721 26-524, biotinylated (BirA co-expression) where captured on streptavidin biosensors)
T2 construct: extracellular domain; also called cKIT; full length AviTagged CD117 ectodomain; not shown: C-terminal AviTag or His tag
T2 sequence (P10721 26-524): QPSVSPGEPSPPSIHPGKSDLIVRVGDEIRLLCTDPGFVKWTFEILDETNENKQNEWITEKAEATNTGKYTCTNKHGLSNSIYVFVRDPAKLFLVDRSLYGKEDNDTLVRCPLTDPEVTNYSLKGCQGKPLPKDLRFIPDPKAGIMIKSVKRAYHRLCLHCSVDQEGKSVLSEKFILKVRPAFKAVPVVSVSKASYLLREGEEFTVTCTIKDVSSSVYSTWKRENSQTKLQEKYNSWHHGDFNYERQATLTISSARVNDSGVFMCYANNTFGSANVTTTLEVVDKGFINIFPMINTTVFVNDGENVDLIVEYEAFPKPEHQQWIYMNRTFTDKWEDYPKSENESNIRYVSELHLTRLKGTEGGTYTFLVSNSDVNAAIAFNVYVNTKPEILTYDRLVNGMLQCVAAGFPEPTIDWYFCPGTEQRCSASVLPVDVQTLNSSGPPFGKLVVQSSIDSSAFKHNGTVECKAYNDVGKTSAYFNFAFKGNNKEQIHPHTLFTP
Assay: ELISA, human CD117, bivalent Fc fusion

Point of comparison: B12, Kd 0.06 nM. Against it:
- B7 — 3.7-fold higher, 0.22 nM
- B8 — 5.5-fold higher, 0.33 nM
- B9 — 6-fold higher, 0.36 nM
- B10 — 3.5-fold higher, 0.21 nM
- B11 — 2.7-fold higher, 0.16 nM
- B13 — 3.5-fold higher, 0.21 nM
- B14 — 2.3-fold higher, 0.14 nM
- B15 — 9-fold higher, 0.54 nM

Molecular target: T3, human CD117 on cells (SKMEL-3 cells, CD34+ HSC) (human, UniProt P10721 26-976)
T3 construct: whole, on cells; also called CD117 on cell surfaces; CD117+ cells
T3 sequence (P10721 26-976): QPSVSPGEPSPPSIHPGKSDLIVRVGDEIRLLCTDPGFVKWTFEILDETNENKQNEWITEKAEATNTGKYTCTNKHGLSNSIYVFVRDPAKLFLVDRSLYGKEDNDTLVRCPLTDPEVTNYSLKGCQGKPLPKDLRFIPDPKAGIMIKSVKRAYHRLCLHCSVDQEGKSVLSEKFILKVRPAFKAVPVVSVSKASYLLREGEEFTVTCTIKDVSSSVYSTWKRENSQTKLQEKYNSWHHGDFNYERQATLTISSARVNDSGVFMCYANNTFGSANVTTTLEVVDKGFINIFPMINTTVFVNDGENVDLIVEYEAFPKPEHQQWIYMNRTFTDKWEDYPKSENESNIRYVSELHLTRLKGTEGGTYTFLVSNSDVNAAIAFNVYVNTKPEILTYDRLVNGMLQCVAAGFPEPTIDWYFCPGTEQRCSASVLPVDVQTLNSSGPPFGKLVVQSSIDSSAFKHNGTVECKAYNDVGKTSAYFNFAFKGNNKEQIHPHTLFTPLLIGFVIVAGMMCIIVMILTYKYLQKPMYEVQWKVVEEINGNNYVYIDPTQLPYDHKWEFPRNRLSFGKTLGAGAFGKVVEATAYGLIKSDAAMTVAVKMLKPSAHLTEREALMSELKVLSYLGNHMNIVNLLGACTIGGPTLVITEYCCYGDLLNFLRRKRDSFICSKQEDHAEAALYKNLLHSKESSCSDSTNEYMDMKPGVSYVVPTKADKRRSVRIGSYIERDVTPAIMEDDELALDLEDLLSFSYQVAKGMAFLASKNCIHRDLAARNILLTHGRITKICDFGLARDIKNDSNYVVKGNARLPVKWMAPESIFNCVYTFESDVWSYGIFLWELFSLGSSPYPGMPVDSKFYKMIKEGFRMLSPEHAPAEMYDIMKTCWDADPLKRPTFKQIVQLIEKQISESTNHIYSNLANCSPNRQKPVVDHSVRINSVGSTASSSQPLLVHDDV
Assay: flow cytometry, CD34+ HSC, bivalent Fc

Point of comparison: B9, EC50 10 nM. Against it:
- B7 — 10-fold lower, 1 nM
- B8 — 5-fold higher, 50 nM
- B11 — 10-fold lower, 1 nM
- B12 — 5-fold higher, 50 nM
- B13 — 5-fold lower, 2 nM
- B14 — 5-fold lower, 2 nM
- B15 — higher, > 50 nM

Molecular target: T3, human CD117 on cells (SKMEL-3 cells, …)
Assay: flow cytometry, CD34+ HSC, monomeric Fc

Point of comparison: B18, EC50 10 nM. Against it:
- B16 — 5-fold lower, 2 nM
- B17 — higher, > 10 nM
- B19 — 5-fold higher, 50 nM

Molecular target: T2, human CD117 ectodomain
Assay: ELISA, human CD117, monovalent Fc fusion

Point of comparison: B18, Kd 1.32 nM. Against it:
- B20 — within 1.5-fold, 1.49 nM
- B16 — 4.7-fold lower, 0.28 nM
- B17 — within 1.5-fold, 1.04 nM
- B19 — 1.9-fold higher, 2.48 nM

Molecular target: T3, human CD117 on cells (SKMEL-3 cells, …)
Assay: flow cytometry, skMEL-3 cells, bivalent Fc

Point of comparison: B7, EC50 1 nM. Against it:
- B8 — 3-fold higher, 3 nM
- B9 — 3-fold higher, 3 nM
- B11 — the same, 1 nM
- B12 — 50-fold higher, 50 nM
- B13 — the same, 1 nM
- B14 — 2-fold higher, 2 nM
- B15 — higher, > 50 nM

Molecular target: T3, human CD117 on cells (SKMEL-3 cells, …)
Assay: flow cytometry, skMEL-3 cells, monomeric Fc

Point of comparison: B18, EC50 10 nM. Against it:
- B16 — 5-fold lower, 2 nM
- B17 — higher, > 10 nM
- B19 — higher, > 50 nM

Molecular target: cynomolgus monkey CD117 ectodomain (cynomolgus monkey)
Assay: BLI (Octet), biotinylated ectodomain on SA biosensor, 1:1 global fit, bivalent Fc

Point of comparison: B7, Kd 0.961 nM. Against it:
- B8 — 580-fold lower, 0.00166 nM
- B9 — within 1.5-fold, 0.647 nM
- B10 — 1.8-fold higher, 1.7 nM
- B11 — 710-fold lower, 0.00136 nM
- B12 — 86-fold lower, 0.0112 nM
- B13 — 86-fold lower, 0.0112 nM
- B14 — 2.2-fold higher, 2.16 nM
- B15 — 21-fold higher, 19.8 nM

Molecular target: cynomolgus monkey CD117 ectodomain (cynomolgus monkey)
Assay: BLI (Octet), biotinylated ectodomain on SA biosensor, 1:1 global fit, monomeric Fc

Point of comparison: B16, Kd 54.9 nM. Against it:
- B20 — 6.9-fold lower, 8.01 nM
- B18 — 6.8-fold lower, 8.11 nM

Molecular target: T2, human CD117 ectodomain
Assay: BLI (Octet), biotinylated ectodomain on SA biosensor, 1:1 global fit, bivalent Fc
Excerpt: (§1) Pre-equilibrated streptavidin biosensors (SA, from Sartorius) were coated with biotinylated CD117 ectodomain by dipping the biosensors into wells containing an optimized dilution of human or cyno CD117 ectodomain. After re-equilibrating the biosensor tips in assay buffer, the biosensors were dipped into supernatant containing the VHH antibodies to allow association between the antibodies and the CD117 ectodomain. Finally, the biosensors were dipped into the assay buffer. The VHH antibodies disassociated from the CD117 ectodomain if association occurred. The association and dissociation of each VHH antibody was characterized qualitatively to identify VHHs that could bind both human and cyno CD117 ectodomains.
(§2) For example, kinetics parameters of the top VHH antibodies for binding to human CD117 and cynomolgus monkey CD117 ectodomain were obtained from the Octet® analysis by Biolayer Interferometry as described above. A minimum of three concentrations of purified VHH antibodies were tested per ectodomain target. The Octet® software was used to perform a global kinetic fit across all concentrations using a 1:1 binding model. This allowed determination of the kinetic parameters, association rate (kₒₙ), dissociation rate (koff) and equilibrium constant (KD) for the 9 antibodies of interest. Total chi-squared (X²) was also examined to determine the goodness of fit for the software's kinetic model.

Point of comparison: B8, Kd 0.00189 nM. Against it:
- B7 — 1.5-fold lower, 0.00124 nM
- B9 — 320-fold higher, 0.602 nM
- B10 — within 1.5-fold, 0.00215 nM
- B11 — lower, < 0.001 nM
- B12 — 24-fold higher, 0.0446 nM
- B13 — 1.5-fold lower, 0.00126 nM
- B14 — 130-fold higher, 0.24 nM
- B15 — 3.6-fold higher, 0.00682 nM

Molecular target: T2, human CD117 ectodomain
Assay: BLI (Octet), biotinylated ectodomain on SA biosensor, 1:1 global fit, monomeric Fc
Excerpt: as §1, §2

Point of comparison: B19, Kd 37.4 nM. Against it:
- B20 — 20-fold lower, 1.86 nM
- B16 — 2.3-fold lower, 16.5 nM
- B17 — within 1.5-fold, 49.2 nM
- B18 — within 1.5-fold, 44.7 nM
